Changes are numbered by the printed parent chain. Numbers in names are those of the source.
B1: Anti-CLDN18.2 monoclonal antibody 2C6.9 (antibody, human IgG1, kappa, V domains shown)
VH: QVQLQESGPGLVKPSETLSLTCTVSGFSLTRYGVSWIRQPPGKGLEWIGVIWGEGNTNYNPSLKSRVTISKDSSKSQVSLKLSSVTAADTAVYYCARVNFGNALDYWGQGTLVTVSS
VL: DIVMTQSPDSLAVSLGERATINCKSSQSLLNSGNQKNYLTWYQQKPGQPPKLLIYWASTRDSGVPDRFSGSGSGTDFTLTISSLQAEDVAVYYCQNDFIFPLTFGGGTKVEIKR
notes: prepared by Wuhan YZY Biopharma
B2: anti-CLDN18.2 monoclonal antibody 1E9.2 (antibody, human IgG1, kappa, V domains shown)
VH: EVQLVESGGGLVKPGGSLRLSCAASGFSFSNSAMSWVRQAPGKGLEWVSTISSGDSYTYYADSVKGRFTISRDNAKNSLYLQMNSLRAEDTAVYYCARQGYGNALDYWGQGTLVTVSS
VL: B1 VL with A57S, D61E, V89F, F98Y, I99Y, F100Y
notes: as for B1
B3: bispecific antibody Y6 (bispecific antibody, human IgG1, kappa)
light: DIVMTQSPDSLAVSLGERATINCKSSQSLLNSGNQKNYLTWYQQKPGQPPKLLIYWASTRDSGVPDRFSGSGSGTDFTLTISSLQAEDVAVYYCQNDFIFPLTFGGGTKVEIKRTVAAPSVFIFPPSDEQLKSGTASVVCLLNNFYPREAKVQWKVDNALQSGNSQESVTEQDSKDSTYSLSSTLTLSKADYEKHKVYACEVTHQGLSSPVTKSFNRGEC
heavy: QVQLQESGPGLVKPSETLSLTCTVSGFSLTRYGVSWIRQPPGKGLEWIGVIWGEGNTNYNPSLKSRVTISKDSSKSQVSLKLSSVTAADTAVYYCARVNFGNALDYWGQGTLVTVSSASTKGPSVFPLAPSSKSTSGGTAALGCLVKDYFPEPVTVSWNSGALTSGVHTFPAVLQSSGLYSLSSVVTVPSSSLGTQTYICNVNHKPSNTKVDKKVEPKSCDKTHTCPPCPAPPVAGPSVFLFPPKPKDTLMISRTPEVTCVVVDVSHEAPEVQFNWYVDGVEVHNAKTKPREEQFNSTFRVVSVLTVVHQDWLNGKEYKCKVSNKGLPAPIEKTISKTKGQPREPQVYTLPPCRDELTKNQVSLWCLVKGFYPSDIAVEWESNGQPENNYKTTPPVLDSDGSFFLYSKLTVDKSRWQQGNVFSCSVMHEALHNHYTQKSLSLSPGK
chain: QVQLVESGGGVVQPGRSLRLSCAASGFTFSTYAMNWVRQAPGKGLEWVARIRSKYNNYATYYADSVKDRFTISRDDSKNTLYLQMNSLRAEDTAVYYCARHGNFGNSYVSWFAYWGQGTLVTVSSGGGGSGGGGSGGGGSQTVVTQEPSLTVSPGGTVTLTCRSSTGAVTTSNYANWVQQKPGQAPRGLIGGTNKRAPGVPARFSGSLLGGKAALTLSGVQPEDEAEYYCALWYSNLWVFGGGTKVEIKGRGRGSDKTHTCPPCPAPPVAGPSVFLFPPKPKDTLMISRTPEVTCVVVDVSHEAPEVQFNWYVDGVEVHNAKTKPREEQFNSTFRVVSVLTVVHQDWLNGKEYKCKVSNKGLPAPIEKTISKTKGQPREPQVCTLPPSRDELTKNQVSLSCAVKGFYPSDIAVEWESNGQPENNYKTTPPVLDSDGSFFLVSKLTVDKSRWQQGNVFSCSVMHEALHNHYTQKSLSLSPGK
notes: YBODY structure: anti-CLDN18.2 Fab arm (2C6.9) and second monomer anti-CD3 scFv (2a5)-Fc
B4: bispecific antibody Y1 (bispecific antibody, human IgG1, kappa)
light: DIVMTQSPSSLTVTAGEKVTMSCKSSQSLLNSGNQKNYLTWYQQKPGQPPKLLIYWASTRESGVPDRFTGSGSGTDFTLTISSVQAEDLAVYYCQNDYSYPFTFGSGTKLEIKRTVAAPSVFIFPPSDEQLKSGTASVVCLLNNFYPREAKVQWKVDNALQSGNSQESVTEQDSKDSTYSLSSTLTLSKADYEKHKVYACEVTHQGLSSPVTKSFNRGEC
heavy: QVQLQQPGAELVRPGASVKLSCKASGYTFTSYWINWVKQRPGQGLEWIGNIYPSDSYTNYNQKFKDKATLTVDKSSSTAYMQLSSPTSEDSAVYYCTRSWRGNSFDYWGQGTTLTVSSASTKGPSVFPLAPSSKSTSGGTAALGCLVKDYFPEPVTVSWNSGALTSGVHTFPAVLQSSGLYSLSSVVTVPSSSLGTQTYICNVNHKPSNTKVDKKVEPKSCDKTHTCPPCPAPPVAGPSVFLFPPKPKDTLMISRTPEVTCVVVDVSHEAPEVQFNWYVDGVEVHNAKTKPREEQFNSTFRVVSVLTVVHQDWLNGKEYKCKVSNKGLPAPIEKTISKTKGQPREPQVYTLPPCRDELTKNQVSLWCLVKGFYPSDIAVEWESNGQPENNYKTTPPVLDSDGSFFLYSKLTVDKSRWQQGNVFSCSVMHEALHNHYTQKSLSLSPGK
chain: B3 chain with F112A, V178F
notes: YBODY structure: anti-CLDN18.2 Fab arm (175D10) and second monomer anti-CD3 scFv (2a5ga)-Fc
B5: bispecific antibody Y8 (bispecific antibody, human IgG1, kappa)
light: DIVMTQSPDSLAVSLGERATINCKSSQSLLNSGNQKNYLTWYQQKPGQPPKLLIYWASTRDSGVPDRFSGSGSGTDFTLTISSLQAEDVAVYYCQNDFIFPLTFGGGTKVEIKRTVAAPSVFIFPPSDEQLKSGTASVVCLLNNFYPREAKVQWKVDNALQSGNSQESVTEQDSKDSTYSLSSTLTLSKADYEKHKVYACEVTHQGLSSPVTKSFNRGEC
heavy: B3 heavy
chain: not shown
notes: YBODY structure: anti-CLDN18.2 Fab arm (2C6.9) and second monomer anti-CD3 scFv (L2K)-Fc
B6: bispecific antibody CS5 (bispecific antibody, human IgG1, kappa)
light: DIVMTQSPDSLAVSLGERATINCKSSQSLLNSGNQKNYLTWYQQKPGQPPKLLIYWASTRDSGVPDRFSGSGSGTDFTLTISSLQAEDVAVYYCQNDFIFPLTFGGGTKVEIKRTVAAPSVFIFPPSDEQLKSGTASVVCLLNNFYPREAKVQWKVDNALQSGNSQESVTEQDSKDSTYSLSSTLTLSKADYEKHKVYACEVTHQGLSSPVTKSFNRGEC
heavy 1: B3 heavy
heavy 2: QVQLQESGPGLVKPSETLSLTCTVSGFSLTRYGVSWIRQPPGKGLEWIGVIWGEGNTNYNPSLKSRVTISKDSSKSQVSLKLSSVTAADTAVYYCARVNFGNALDYWGQGTLVTVSSASTKGPSVFPLAPSSKSTSGGTAALGCLVKDYFPEPVTVSWNSGALTSGVHTFPAVLQSSGLYSLSSVVTVPSSSLGTQTYICNVNHKPSNTKVDKKVEPKSCDKTHTAPAPAPAPAPAPAPAPQVQLVESGGGVVQPGRSLRLSCAASGFTFSTYAMNWVRQAPGKGLEWVARIRSKYNNYATYYADSVKDRFTISRDDSKNTLYLQMNSLRAEDTAVYYCARHGNFGNSYVSWAAYWGQGTLVTVSSGGGGSGGGGSGGGGSQTVVTQEPSLTVSPGGTVTLTCRSSTGAVTTSNYANWFQQKPGQAPRGLIGGTNKRAPGVPARFSGSLLGGKAALTLSGVQPEDEAEYYCALWYSNLWVFGGGTKVEIKGGGGSDKTHTCPPCPAPPVAGPSVFLFPPKPKDTLMISRTPEVTCVVVDVSHEAPEVQFNWYVDGVEVHNAKTKPREEQFNSTFRVVSVLTVVHQDWLNGKEYKCKVSNKGLPAPIEKTISKTKGQPREPQVCTLPPSRDELTKNQVSLSCAVKGFYPSDIAVEWESNGQPENNYKTTPPVLDSDGSFFLVSKLTVDKSRWQQGNVFSCSVMHEALHNHYTQKSLSLSPGK
notes: CSBODY structure: two 2C6.9 Fab arms; second heavy chain (first heavy entry) and first heavy chain with anti-CD3 scFv (2a5ga) between CH1 and Fc2
B7: bispecific antibody CS2 (bispecific antibody, human IgG1, kappa)
light: B4 light
heavy 1: B4 heavy
heavy 2: QVQLQQPGAELVRPGASVKLSCKASGYTFTSYWINWVKQRPGQGLEWIGNIYPSDSYTNYNQKFKDKATLTVDKSSSTAYMQLSSPTSEDSAVYYCTRSWRGNSFDYWGQGTTLTVSSASTKGPSVFPLAPSSKSTSGGTAALGCLVKDYFPEPVTVSWNSGALTSGVHTFPAVLQSSGLYSLSSVVTVPSSSLGTQTYICNVNHKPSNTKVDKKVEPKSCDKTHTAPAPAPAPAPAPAPAPQVQLVESGGGVVQPGRSLRLSCAASGFTFSTYAMNWVRQAPGKGLEWVARIRSKYNNYATYYADSVKDRFTISRDDSKNTLYLQMNSLRAEDTAVYYCARHGNFGNSYVSWFAYWGQGTLVTVSSGGGGSGGGGSGGGGSQTVVTQEPSLTVSPGGTVTLTCRSSTGAVTTSNYANWVQQKPGQAPRGLIGGTNKRAPGVPARFSGSLLGGKAALTLSGVQPEDEAEYYCALWYSNLWVFGGGTKVEIKGGGGSDKTHTCPPCPAPPVAGPSVFLFPPKPKDTLMISRTPEVTCVVVDVSHEAPEVQFNWYVDGVEVHNAKTKPREEQFNSTFRVVSVLTVVHQDWLNGKEYKCKVSNKGLPAPIEKTISKTKGQPREPQVCTLPPSRDELTKNQVSLSCAVKGFYPSDIAVEWESNGQPENNYKTTPPVLDSDGSFFLVSKLTVDKSRWQQGNVFSCSVMHEALHNHYTQKSLSLSPGK
notes: CSBODY structure: two 175D10 Fab arms; second heavy chain (first heavy entry) and first heavy chain with anti-CD3 scFv (2a5) between CH1 and Fc2
B8: bispecific antibody CS9 (bispecific antibody, human IgG1, kappa)
light: B4 light
heavy 1: B4 heavy
heavy 2: not shown
notes: CSBODY structure: two 175D10 Fab arms; second heavy chain (first heavy entry) and first heavy chain with anti-CD3 scFv (L2K) between CH1 and Fc2
B9: IMAB362 monoclonal antibody (antibody, human IgG1, kappa, V domains shown)
VH: QVQLQQPGAELVRPGASVKLSCKASGYTFTSYWINWVKQRPGQGLEWIGNIYPSDSYTNYNQKFKDKATLTVDKSSSTAYMQLSSPTSEDSAVYYCTRSWRGNSFDYWGQGTTLTVSS
VL: DIVMTQSPSSLTVTAGEKVTMSCKSSQSLLNSGNQKNYLTWYQQKPGQPPKLLIYWASTRESGVPDRFTGSGSGTDFTLTISSVQAEDLAVYYCQNDYSYPFTFGSGTKLEIKR
notes: prepared by Wuhan YZY Biopharma; also called Anti-CLDN18.2 monoclonal antibody IMAB362

Assays:
Human CLDN18.1 = target: T1, Human CLDN18.1 (human, UniProt P56856 1-261); assay: flow cytometry, 293T-hCLDN18.1 cells
T1 construct: also called hCLDN18.1

human CD3 antigen = target: T2, human CD3 antigen (human, UniProt P07766 23-126); assay: SPR (Biacore T200), human CD3 antigen amine-coupled on CM5 chip, 1:1 fit
T2 construct: also called Human CD3ϵ
Description: After the detection was completed, data fitting was carried out on the result pattern by adopting Biacore T200 Evaluation Software in a 1:1 binding fitting mode to obtain an equilibrium dissociation constant (KD).

Human CLDN18.2 [1] = target: Human CLDN18.2 (human); assay: cell-based or functional assay
Human CLDN18.2 [2] = target: T3, Human CLDN18.2 (human); assay: flow cytometry, NUGC4 cells (endogenous CLDN18.2)
T3 construct: the cell line is named under assay; also called hCLDN18.2; human CLDN18.2 antigen
Description: (§1) NUGC4 and NUGC4-hCLDN18.2 cells were cultured, digested with pancreatin and centrifuged to collect cells. The cells were collected and resuspended in buffer (PBS+1% FBS) at 1×10⁴ cells/well in a 96-well plate at 100 μL per well. Then the mixture was centrifuged at 350×g for 5 min, and the supernatant was removed.

Human CLDN18.2 [3] = target: T3, Human CLDN18.2; assay: cell-based or functional assay; remark: listed apart in the source
Human CLDN18.2 [4] = target: T3, Human CLDN18.2; assay: flow cytometry, NUGC4-hCLDN18.2 cells
Description: as §1

Human CLDN18.2 [5] = target: T3, Human CLDN18.2; assay: cell-based or functional assay; remark: listed apart in the source
Human CLDN18.2 [6] = target: T3, Human CLDN18.2; assay: flow cytometry, NUGC4-hCLDN18.2 cells; remark: listed apart in the source
Description: as §1

Binder	binding result (Human CLDN18.1)	Kd (human CD3 antigen) [nM]	EC50 (pM), in vitro killing by hPBMC, NUGC4-hCLDN18.2 cells (Human CLDN18.2 [1]) [pM]	EC50 (pM), in vitro killing by hPBMC, NUGC4 cells (Human CLDN18.2 [1]) [pM]	EC50 (Human CLDN18.2 [2]) [nM]	Induction of expression of CD25 EC50 (pM), NUGC4 (Human CLDN18.2 [3]) [pM]	Induction of expression of CD25 EC50 (pM), NUGC4-hCLDN18.2 (Human CLDN18.2 [3]) [pM]	Induction of expression of CD69 EC50 (pM), NUGC4 (Human CLDN18.2 [3]) [pM]	Induction of expression of CD69 EC50 (pM), NUGC4-hCLDN18.2 (Human CLDN18.2 [3]) [pM]	EC50 (Human CLDN18.2 [4]) [nM]	EC50 value for killing effect on NUGC4-hCLDN18.2 cells (Human CLDN18.2 [5]) [nM]	EC50 (Human CLDN18.2 [6]) [nM]
B1	no binding (tested: 1000 nM)											
B2	no binding (tested: 1000 nM)											
B3		5.77	1.07	7.99	184	17.2	2.32	4.87	0.592	45.9		
B4		1980										
B5			4.09	57.8	75.1	182	16.5	33.3	2.98	46.9		
B6			132	433	25.7	481	142	141	70.5	18.2		
B7		3.1	2.17			216	1.21	29.5	0.389	36		
B8	no binding										< 0.01	< 50
B9												10.8

Reference: patent US20230192903A1 (published 2023)
